Drawing on paper PMC2275093, this text covers binding result and Kd for two molecules.

Data set [1] concerns the target T1, Cren7 (recombinant) (Sulfolobus solfataricus P2, UniProt Q97ZE3 1-60).
T1 sequence: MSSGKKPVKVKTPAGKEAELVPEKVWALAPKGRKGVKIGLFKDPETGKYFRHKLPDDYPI
The experiment in a line: NMR 1H-15N HSQC titration.

Data set [2] concerns the target T1, Cren7 (recombinant). The experiment in a line: EMSA.

B1: 10-bp duplex (dsDNA)
DNA 1: GCGAATTCGC
DNA 2: GCGAATTCGC
As for B1, the binding result in the data set with Cren7 (recombinant) [1] is on record as “binds”.

B2: poly(GACT)15 60 nt ssDNA (ssDNA)
DNA: GACTGACTGACTGACTGACTGACTGACTGACTGACTGACTGACTGACTGACTGACTGACT
As usually defined, the Kd is the concentration at which binding is half-saturated. As to B2, the dissociation constant Kd with Cren7 (recombinant) [2] is about 2500 nM.
